The experiment concerns the target FLAG-PTTG1Δ159. Nature of the experiment: co-IP; TCAM2 cells overexpressing FLAG-PTTG1 or FLAG-PTTG1Δ159; IP with M2 αFLAG antibody overnight at 4 °C, Dynabeads; IP lysis buffer 50 mM Tris-Cl pH 7.5, 150 mM NaCl, 1% Nonidet P-40, 1 mM EDTA; Western blot for endogenous SPTBN1, densitometry. (In general: In western blotting, separated proteins are transferred to a membrane and probed.)

“Spectrin-βII-chain (SPTBN1) (from UniProt Q01082 1-2364) (natural protein)” gave a binding relative to wild-type PTTG1 (densitometry of the co-IP) of 30%.
